Our source for the stoichiometry N values is publication PMC11703243.

By stoichiometry N is commonly meant the number of molecules, sites or subunits per partner or assembly.

Experiment [1] has as its target Alexa Fluor 488-labeled BAX^WT (human) (UniProt Q07812). Briefly: SEC.
In experiment [2] the target is BAX, recombinant human, wild type (human) (UniProt Q07812). Briefly: SEC. A general note: In gel filtration, larger molecules generally elute earlier.

For the substance “Alexa Fluor 488-labeled BAX^WT (from UniProt Q07812 1-192) (natural protein)”, the stoichiometry N in experiment [1] came out at 2. In the case of “BAX, recombinant human, wild type (from UniProt Q07812 1-192) (natural protein)”, the stoichiometry N in experiment [2] came to 2.
